Data from the supplement of paper PMC10567573.

B1: PPFIA4 (parent)
chain: VMTLPSDLRKHRRKLLSPVSREEN

Variants of: B1
Test: protein stability index of a GFP-peptide fusion (GPS, HEK-293T) (PSI 1-6); higher = more stable
Conditions: c terminus: a fixed tail appended
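Further: lentivirally expressed fusions sorted by FACS into six bins by GFP to DsRed ratio, PSI derived from sequencing read proportions per bin multiplied by bin number.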

Variant	protein stability index
VMTLPSDLRKHRRKLLSPVQREEN	4.17
VMTLPSDLRKHRRKLLSPVKREEN	3.92
VMTLPSDLRKHRRKLLSPVYREEN	2.98
VMTLPSDLRKHRRKLLSPVIREEN	3.84
VMTLPSDLRKHRRKLLSPVMREEN	3.82
VMTLPSDLRKHRRKLLSPVCREEN	2.69
VMTLPSDLRKHRRKLLSPVFREEN	2.54
VMTLPSDLRKHRRKLLSPVEREEN	4.26
VMTLPSDLRKHRRKLLSPVPREEN	3.67
VMTLPSDLRKHRRKLLSPVVREEN	3.23
VMTLPSDLRKHRRKLLSPVHREEN	3.18
VMTLPSDLRKHRRKLLSPVAREEN	3.98
VMTLPSDLRKHRRKLLSPVRREEN	3.84
VMTLPSDLRKHRRKLLSPVNREEN	3.91
VMTLPSDLRKHRRKLLSPVTREEN	3.75
VMTLPSDLRKHRRKLLSPVWREEN	2.63
VMTLPSDLRKHRRKLLSPVGREEN	4.22
VMTLPSDLRKHRRKLLSPVLREEN	3.44
VMTLPSDLRKHRRKLLSRVSREEN	3.08
VMTLPSDLRKHRRKLLSVVSREEN	4.09
VMTLPSDLRKHRRKLLSQVSREEN	2.92
VMTLPSDLRKHRRKLLSTVSREEN	4.31
VMTLPSDLRKHRRKLLSSVSREEN	4.07
VMTLPSDLRKHRRKLLSAVSREEN	4.42

Variant	protein stability index
VMTLPSDLRKHRRKLLSGVSREEN	4.12
VMTLPSDLRKHRRKLLSWVSREEN	2.47
VMTLPSDLRKHRRKLLSIVSREEN	3.33
VMTLPSDLRKHRRKLLSCVSREEN	3.51
VMTLPSDLRKHRRKLLSLVSREEN	3.44
VMTLPSDLRKHRRKLLSDVSREEN	4.7
VMTLPSDLRKHRRKLLSHVSREEN	3.52
VMTLPSDLRKHRRKLLSEVSREEN	4.62
VMTLPSDLRKHRRKLLSNVSREEN	3.72
VMTLPSDLRKHRRKLLSFVSREEN	2.83
VMTLPSDLRKHRRKLLSYVSREEN	3.42
VMTLPSDLRKHRRKLLSMVSREEN	3.83
VMTLPSDLRKHRRKLLSKVSREEN	4.16
VMTLPSDLRKHRRKLLSPVSRIEN	3.02
VMTLPSDLRKHRRKLLSPVSRLEN	2.26
VMTLPSDLRKHRRKLLSPVSRDEN	3.5
VMTLPSDLRKHRRKLLSPVSRTEN	3.22
VMTLPSDLRKHRRKLLSPVSRQEN	3.19
VMTLPSDLRKHRRKLLSPVSRWEN	2.23
VMTLPSDLRKHRRKLLSPVSRMEN	3.25
VMTLPSDLRKHRRKLLSPVSRYEN	2.93
VMTLPSDLRKHRRKLLSPVSRREN	3.66
VMTLPSDLRKHRRKLLSPVSRSEN	3.68
VMTLPSDLRKHRRKLLSPVSRVEN	3.86

Variant	protein stability index
VMTLPSDLRKHRRKLLSPVSRGEN	3.16
VMTLPSDLRKHRRKLLSPVSRKEN	3.67
VMTLPSDLRKHRRKLLSPVSRNEN	3.27
VMTLPSDLRKHRRKLLSPVSRHEN	3.52
VMTLPSDLRKHRRKLLSPVSRFEN	2.44
VMTLPSDLRKHRRKLLSPVSRAEN	3.12
VMTLPSDLRKHRRKLLSPVSRCEN	2.8
VMTLPSDLRKHRRKLLSPVSRPEN	2.85
VMTLPSDLRKHRRKLLTPVSREEN	4.23
VMTLPSDLRKHRRKLLEPVSREEN	3.86
VMTLPSDLRKHRRKLLHPVSREEN	3.93
VMTLPSDLRKHRRKLLYPVSREEN	4.07
VMTLPSDLRKHRRKLLAPVSREEN	4.24
VMTLPSDLRKHRRKLLLPVSREEN	3.73
VMTLPSDLRKHRRKLLRPVSREEN	3.77
VMTLPSDLRKHRRKLLGPVSREEN	3.9
VMTLPSDLRKHRRKLLWPVSREEN	2.9
VMTLPSDLRKHRRKLLIPVSREEN	3.45
VMTLPSDLRKHRRKLLPPVSREEN	4.17
VMTLPSDLRKHRRKLLDPVSREEN	4.29
VMTLPSDLRKHRRKLLCPVSREEN	3.65
VMTLPSDLRKHRRKLLQPVSREEN	4.08
VMTLPSDLRKHRRKLLVPVSREEN	3.53
VMTLPSDLRKHRRKLLFPVSREEN	4.01

Variant	protein stability index
VMTLPSDLRKHRRKLLMPVSREEN	3.48
VMTLPSDLRKHRRKLLKPVSREEN	3.66
VMTLPSDLRKHRRKLLNPVSREEN	3.88
VMTLPSDLRKHRRKLLSPVSREEK	4.04
VMTLPSDLRKHRRKLLSPVSREEM	3.07
VMTLPSDLRKHRRKLLSPVSREER	3.73
VMTLPSDLRKHRRKLLSPVSREEV	3.27
VMTLPSDLRKHRRKLLSPVSREEQ	4.05
VMTLPSDLRKHRRKLLSPVSREEA	4.02
VMTLPSDLRKHRRKLLSPVSREEE	4.31
VMTLPSDLRKHRRKLLSPVSREEC	3.33
VMTLPSDLRKHRRKLLSPVSREET	3.73
VMTLPSDLRKHRRKLLSPVSREEI	3.34
VMTLPSDLRKHRRKLLSPVSREES	3.91
VMTLPSDLRKHRRKLLSPVSREEF	2.44
VMTLPSDLRKHRRKLLSPVSREEY	3.02
VMTLPSDLRKHRRKLLSPVSREEG	3.23
VMTLPSDLRKHRRKLLSPVSREEH	3.88
VMTLPSDLRKHRRKLLSPVSREEP	3.45
VMTLPSDLRKHRRKLLSPVSREED	4.33
VMTLPSDLRKHRRKLLSPVSREEW	2.99
VMTLPSDLRKHRRKLLSPVSREEL	2.94
